System: FopA (Salmonella enterica serovar Typhimurium SL1344 (plasmid pCol1B9))
Test: EMSA

| Substance | Kd [nM] |
| --- | --- |
| Inc RNA | 1000 |
| Inc-repZ complex | 1000 |
| repZ 5'UTR fragment | 1000 |
